Data reported in paper PMC9352680, “A comprehensive thermodynamic model for RNA binding by the Saccharomyces cerevisiae Pumilio protein PUF4”.

Target: T1, PUF4 RNA-binding domain (Saccharomyces cerevisiae, UniProt P25339 537-888)
T1 sequence: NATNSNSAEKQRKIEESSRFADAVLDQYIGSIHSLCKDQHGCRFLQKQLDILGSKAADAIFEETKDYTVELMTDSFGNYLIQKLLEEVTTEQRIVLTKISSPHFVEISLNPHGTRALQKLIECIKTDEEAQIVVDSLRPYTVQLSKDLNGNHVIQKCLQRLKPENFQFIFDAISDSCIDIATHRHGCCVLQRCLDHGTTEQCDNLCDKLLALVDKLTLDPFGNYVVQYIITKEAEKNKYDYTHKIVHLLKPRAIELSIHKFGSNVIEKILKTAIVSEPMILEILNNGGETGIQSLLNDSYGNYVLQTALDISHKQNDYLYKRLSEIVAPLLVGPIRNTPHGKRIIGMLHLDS
Assay: Mg; RNA-MaP; 20 mM Na-HEPES pH 7.4, 30 mM KOAc, 0.75 mM MgCl2, 0.1% Tween-20, 5% glycerol, 0.1 mg/mL BSA, 2 mM DTT; 25 C; 0.0125-409.6 nM protein
Settings: tags: N-His6-TEV cleaved; C-SNAP kept, Cy3B-labelled; label: tethered on chip by stalled RNA polymerase

| Binder | Kd |
| --- | --- |
| Ib_S4_P4E.1_K4.1_C4.1_H4.1_[T1C]_[G2A]_A4.1_F4.1_T4.1 (ssRNA) RNA: UUUGACAACUGAUCGUUCUUUCUCAUAUAUUAUUCUUUCUCGAUCAGUUGUCUUU | 168 nM |
| Ib_S4_P4E.1_K4.1_C4.1_H4.1_[T1A]_[G2C]_A4.1_F4.1_T4.1 (ssRNA) RNA: UUUGACAACUGAUCGUUCUUUCUACUAUAUUAUUCUUUCUCGAUCAGUUGUCUUU | 481 nM |
| Ib_S4_P4E.1_K4.1_C4.1_H4.1_[T1A]_[G2T]_A4.1_F4.1_T4.1 (ssRNA) RNA: UUUGACAACUGAUCGUUCUUUCUAUUAUAUUAUUCUUUCUCGAUCAGUUGUCUUU | 686 nM |
| Ib_S4_P4E.1_K4.1_C4.1_H4.1_[T1A]_[T3C]_A4.1_F4.1_T4.1 (ssRNA) RNA: UUUGACAACUGAUCGUUCUUUCUAGCAUAUUAUUCUUUCUCGAUCAGUUGUCUUU | 1880 nM |
| Ib_S4_P4E.1_K4.1_C4.1_H4.1_[T1G]_[A4G]_A4.1_F4.1_T4.1 (ssRNA) RNA: UUUGACAACUGAUCGUUCUUUCUGGUGUAUUAUUCUUUCUCGAUCAGUUGUCUUU | 40.1 nM |
| Ib_S4_P4E.1_K4.1_C4.1_H4.1_[T1G]_[A4C]_A4.1_F4.1_T4.1 (ssRNA) RNA: UUUGACAACUGAUCGUUCUUUCUGGUCUAUUAUUCUUUCUCGAUCAGUUGUCUUU | > 2300 nM |
| Ib_S4_P4E.1_K4.1_C4.1_H4.1_[T1G]_[A4T]_A4.1_F4.1_T4.1 (ssRNA) RNA: UUUGACAACUGAUCGUUCUUUCUGGUUUAUUAUUCUUUCUCGAUCAGUUGUCUUU | 1600 nM |
| Ib_S4_P4E.1_K4.1_C4.1_H4.1_[T1C]_[A4T]_A4.1_F4.1_T4.1 (ssRNA) RNA: UUUGACAACUGAUCGUUCUUUCUCGUUUAUUAUUCUUUCUCGAUCAGUUGUCUUU | 615 nM |
| Ib_S4_P4E.1_K4.1_C4.1_H4.1_[T1A]_[A4T]_A4.1_F4.1_T4.1 (ssRNA) RNA: UUUGACAACUGAUCGUUCUUUCUAGUUUAUUAUUCUUUCUCGAUCAGUUGUCUUU | > 2300 nM |
| Ic_S4_P3E.1_K3.1_C3.1_H3.1_A3.1_[T5C]_F3.1_T3.1 (ssRNA) RNA: UUUGACAACUGAUCGUUCUUUCUUGUACAUAUUCUUUCUCGAUCAGUUGUCUUU | 1.93 nM |
| Ib_S4_P4E.1_K4.1_C4.1_H4.1_[G2C]_[T3C]_A4.1_F4.1_T4.1 (ssRNA) RNA: UUUGACAACUGAUCGUUCUUUCUUCCAUAUUAUUCUUUCUCGAUCAGUUGUCUUU | 2090 nM |
| Ib_S4_P4E.1_K4.1_C4.1_H4.1_[G2T]_[T3C]_A4.1_F4.1_T4.1 (ssRNA) RNA: UUUGACAACUGAUCGUUCUUUCUUUCAUAUUAUUCUUUCUCGAUCAGUUGUCUUU | 2000 nM |
| Ib_S4_P4E.1_K4.1_C4.1_H4.1_[G2T]_[A4G]_A4.1_F4.1_T4.1 (ssRNA) RNA: UUUGACAACUGAUCGUUCUUUCUUUUGUAUUAUUCUUUCUCGAUCAGUUGUCUUU | 7.27 nM |
| Ib_S4_P4E.1_K4.1_C4.1_H4.1_[G2T]_[A4C]_A4.1_F4.1_T4.1 (ssRNA) RNA: UUUGACAACUGAUCGUUCUUUCUUUUCUAUUAUUCUUUCUCGAUCAGUUGUCUUU | > 2300 nM |
| Ib_S4_P4E.1_K4.1_C4.1_H4.1_[G2A]_[A4G]_A4.1_F4.1_T4.1 (ssRNA) RNA: UUUGACAACUGAUCGUUCUUUCUUAUGUAUUAUUCUUUCUCGAUCAGUUGUCUUU | 15.2 nM |
| Ib_S4_P4E.1_K4.1_C4.1_H4.1_[G2A]_[A4T]_A4.1_F4.1_T4.1 (ssRNA) RNA: UUUGACAACUGAUCGUUCUUUCUUAUUUAUUAUUCUUUCUCGAUCAGUUGUCUUU | 669 nM |
| Ib_S4_P4E.1_K4.1_C4.1_H4.1_[T3G]_[A4T]_A4.1_F4.1_T4.1 (ssRNA) RNA: UUUGACAACUGAUCGUUCUUUCUUGGUUAUUAUUCUUUCUCGAUCAGUUGUCUUU | 1280 nM |
| Ib_S4_P4E.1_K4.1_C4.1_H4.1_[T3C]_[A4C]_A4.1_F4.1_T4.1 (ssRNA) RNA: UUUGACAACUGAUCGUUCUUUCUUGCCUAUUAUUCUUUCUCGAUCAGUUGUCUUU | 814 nM |
| Ib_S4_P4E.1_K4.1_C4.1_H4.1_[T1G]_A4.1_[T5C]_F4.1_T4.1 (ssRNA) RNA: UUUGACAACUGAUCGUUCUUUCUGGUACAUUAUUCUUUCUCGAUCAGUUGUCUUU | 42.9 nM |

| Binder | Kd |
| --- | --- |
| Ib_S4_P4E.1_K4.1_C4.1_H4.1_[T1C]_A4.1_[T5A]_F4.1_T4.1 (ssRNA) RNA: UUUGACAACUGAUCGUUCUUUCUCGUAAAUUAUUCUUUCUCGAUCAGUUGUCUUU | 182 nM |
| Ic_S4_P3E.1_K3.1_C3.1_H3.1_A3.1_[A6C]_F3.1_T3.1 (ssRNA) RNA: UUUGACAACUGAUCGUUCUUUCUUGUAUCUAUUCUUUCUCGAUCAGUUGUCUUU | 10.1 nM |
| Ib_S4_P4E.1_K4.1_C4.1_H4.1_[T1A]_A4.1_[T5A]_F4.1_T4.1 (ssRNA) RNA: UUUGACAACUGAUCGUUCUUUCUAGUAAAUUAUUCUUUCUCGAUCAGUUGUCUUU | 858 nM |
| Ib_S4_P4E.1_K4.1_C4.1_H4.1_[T1G]_A4.1_[A6T]_F4.1_T4.1 (ssRNA) RNA: UUUGACAACUGAUCGUUCUUUCUGGUAUUUUAUUCUUUCUCGAUCAGUUGUCUUU | 971 nM |
| Ib_S4_P4E.1_K4.1_C4.1_H4.1_[T1C]_A4.1_[A6G]_F4.1_T4.1 (ssRNA) RNA: UUUGACAACUGAUCGUUCUUUCUCGUAUGUUAUUCUUUCUCGAUCAGUUGUCUUU | 700 nM |
| Ib_S4_P4E.1_K4.1_C4.1_H4.1_[T1C]_A4.1_[A6T]_F4.1_T4.1 (ssRNA) RNA: UUUGACAACUGAUCGUUCUUUCUCGUAUUUUAUUCUUUCUCGAUCAGUUGUCUUU | 133 nM |
| Ib_S4_P4E.1_K4.1_C4.1_H4.1_[T1A]_A4.1_[A6C]_F4.1_T4.1 (ssRNA) RNA: UUUGACAACUGAUCGUUCUUUCUAGUAUCUUAUUCUUUCUCGAUCAGUUGUCUUU | 2270 nM |
| Ib_S4_P4E.1_K4.1_C4.1_H4.1_[T1A]_A4.1_[A6T]_F4.1_T4.1 (ssRNA) RNA: UUUGACAACUGAUCGUUCUUUCUAGUAUUUUAUUCUUUCUCGAUCAGUUGUCUUU | 1520 nM |
| Ib_S4_P4E.1_K4.1_C4.1_H4.1_[T1G]_A4.1_[T7A]_F4.1_T4.1 (ssRNA) RNA: UUUGACAACUGAUCGUUCUUUCUGGUAUAAUAUUCUUUCUCGAUCAGUUGUCUUU | 332 nM |
| Ib_S4_P4E.1_K4.1_C4.1_H4.1_[G2T]_A4.1_[T5C]_F4.1_T4.1 (ssRNA) RNA: UUUGACAACUGAUCGUUCUUUCUUUUACAUUAUUCUUUCUCGAUCAGUUGUCUUU | 356 nM |
| Ib_S4_P4E.1_K4.1_C4.1_H4.1_[G2C]_A4.1_[A6C]_F4.1_T4.1 (ssRNA) RNA: UUUGACAACUGAUCGUUCUUUCUUCUAUCUUAUUCUUUCUCGAUCAGUUGUCUUU | > 2300 nM |
| Ib_S4_P4E.1_K4.1_C4.1_H4.1_[G2T]_A4.1_[A6C]_F4.1_T4.1 (ssRNA) RNA: UUUGACAACUGAUCGUUCUUUCUUUUAUCUUAUUCUUUCUCGAUCAGUUGUCUUU | > 2300 nM |
| Ia_S4_P4E.1_K4.1_C4.1_H4.1_A4.1_F4.1_[T8C]_T4.1 (ssRNA) RNA: UUUGACAACUGAUCGUUCUUUCUUGUAUAUCAUUCUUUCUCGAUCAGUUGUCUUU | 9.03 nM |
| Ib_S4_P4E.1_K4.1_C4.1_H4.1_[G2C]_A4.1_[T7G]_F4.1_T4.1 (ssRNA) RNA: UUUGACAACUGAUCGUUCUUUCUUCUAUAGUAUUCUUUCUCGAUCAGUUGUCUUU | > 2300 nM |
| Ib_S4_P4E.1_K4.1_C4.1_H4.1_[G2T]_A4.1_[T7A]_F4.1_T4.1 (ssRNA) RNA: UUUGACAACUGAUCGUUCUUUCUUUUAUAAUAUUCUUUCUCGAUCAGUUGUCUUU | 1200 nM |
| Ib_S4_P4E.1_K4.1_C4.1_H4.1_[G2A]_A4.1_[T7A]_F4.1_T4.1 (ssRNA) RNA: UUUGACAACUGAUCGUUCUUUCUUAUAUAAUAUUCUUUCUCGAUCAGUUGUCUUU | 75.2 nM |
| Ib_S4_P4E.1_K4.1_C4.1_H4.1_[T3C]_A4.1_[A6T]_F4.1_T4.1 (ssRNA) RNA: UUUGACAACUGAUCGUUCUUUCUUGCAUUUUAUUCUUUCUCGAUCAGUUGUCUUU | 202 nM |
| Ib_S4_P4E.1_K4.1_C4.1_H4.1_[T3C]_A4.1_[T7G]_F4.1_T4.1 (ssRNA) RNA: UUUGACAACUGAUCGUUCUUUCUUGCAUAGUAUUCUUUCUCGAUCAGUUGUCUUU | 434 nM |
